We go through 2 molecules from US20240076389A1 (NATIONAL RESEARCH COUNCIL OF CANADA, published 2024).

Test [1] addresses T1, human AXL expressed on the cell surface of tumor cell lines (human, UniProt P30530 26-894).
T1 construct: whole, on cells; also called cell surface-expressed AXL; cell-based AXL
T1 sequence (looked up): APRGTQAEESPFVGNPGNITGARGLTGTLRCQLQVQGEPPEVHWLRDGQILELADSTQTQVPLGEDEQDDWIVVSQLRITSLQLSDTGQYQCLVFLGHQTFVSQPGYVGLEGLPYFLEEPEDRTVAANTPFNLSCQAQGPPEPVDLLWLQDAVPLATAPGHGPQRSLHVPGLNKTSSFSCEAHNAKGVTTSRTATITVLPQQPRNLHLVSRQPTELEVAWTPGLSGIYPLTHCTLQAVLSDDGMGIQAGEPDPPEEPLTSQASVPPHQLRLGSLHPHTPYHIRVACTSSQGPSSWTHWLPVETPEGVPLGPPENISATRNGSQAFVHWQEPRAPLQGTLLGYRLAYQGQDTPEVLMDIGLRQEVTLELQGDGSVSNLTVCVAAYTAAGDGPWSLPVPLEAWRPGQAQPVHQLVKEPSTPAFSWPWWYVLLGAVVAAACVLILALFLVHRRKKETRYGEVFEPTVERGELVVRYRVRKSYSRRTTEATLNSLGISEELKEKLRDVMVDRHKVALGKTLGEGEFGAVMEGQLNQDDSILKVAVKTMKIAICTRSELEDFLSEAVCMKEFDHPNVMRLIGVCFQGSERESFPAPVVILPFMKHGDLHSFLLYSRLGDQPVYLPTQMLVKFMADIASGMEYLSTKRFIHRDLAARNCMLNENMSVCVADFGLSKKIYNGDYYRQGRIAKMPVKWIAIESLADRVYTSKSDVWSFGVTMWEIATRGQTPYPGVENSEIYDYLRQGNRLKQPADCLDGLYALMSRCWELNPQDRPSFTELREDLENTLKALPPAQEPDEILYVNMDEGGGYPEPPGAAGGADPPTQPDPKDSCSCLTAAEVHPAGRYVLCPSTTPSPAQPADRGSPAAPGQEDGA
Nature of the test: FACS on SKOV3 cells, apparent Kd, human Fc format. On the procedure: (§1) FACS binding assay. Adherent cells were dissociated with non-enzymatic Sigma Cell Dissociation Solution (Cat. No. C5789). Cells suspensions were added to polypropylene, V-bottom 96-well plates and incubated for 2 hours on ice with primary antibodies at concentrations ranging from 100 nM to 0.001 nM or at a single dose of 100 nM (for the non-specific control). After incubation and washes, cells were incubated with fluorescently labeled secondary antibody (Alexa Fluor® 488 anti-human IgG from Jackson Cat. No 709-546-098) for 1 hour on ice, then washed. Cell viability was determined using Fixable viability dye 450 (20 min on ice). Stained cells were fixed in 1% formaldehyde at 4° C. and stored at 4° C. until acquisition which was performed the next day.
(§2) Binding of recombinant chimeric Abs to three cell lines was assessed by FACS as described above. The apparent Bmax and Kd determination is shown below in Table 14.

Test [2] addresses T1, human AXL expressed on the cell surface …. Description: FACS on MDA-MB-231 luciferase cells, apparent Kd, human Fc format. On the procedure: as §1, §2
The target of test [3] is T2, huMER-ECD displayed on yeast (human, UniProt Q12866 21-505).
T2 construct: extracellular domain
T2 sequence (looked up): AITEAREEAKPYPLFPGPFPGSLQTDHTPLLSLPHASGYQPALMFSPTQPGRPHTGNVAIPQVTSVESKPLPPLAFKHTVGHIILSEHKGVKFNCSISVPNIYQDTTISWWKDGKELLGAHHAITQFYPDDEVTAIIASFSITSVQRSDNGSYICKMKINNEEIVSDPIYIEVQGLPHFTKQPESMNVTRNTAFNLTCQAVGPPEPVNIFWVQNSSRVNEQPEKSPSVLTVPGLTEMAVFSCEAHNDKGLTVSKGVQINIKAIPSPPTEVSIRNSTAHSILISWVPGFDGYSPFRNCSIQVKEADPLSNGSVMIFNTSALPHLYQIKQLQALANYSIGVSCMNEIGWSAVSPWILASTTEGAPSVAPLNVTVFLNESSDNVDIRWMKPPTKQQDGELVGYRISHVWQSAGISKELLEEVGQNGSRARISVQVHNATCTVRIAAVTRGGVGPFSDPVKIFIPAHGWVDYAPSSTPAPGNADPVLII
Description: yeast surface display ELISA, non-denatured yeast, goat anti-human F(ab')2-HRP.

Test [4] deals with T3, recombinant human AXL extracellular domain, C-terminally His8-tagged (rhAXL-ECD) (human, UniProt P30530 26-451).
T3 construct: Made in CHO cells; also called (rh)AXL-ECD His8; human AXL ECD
T3 sequence: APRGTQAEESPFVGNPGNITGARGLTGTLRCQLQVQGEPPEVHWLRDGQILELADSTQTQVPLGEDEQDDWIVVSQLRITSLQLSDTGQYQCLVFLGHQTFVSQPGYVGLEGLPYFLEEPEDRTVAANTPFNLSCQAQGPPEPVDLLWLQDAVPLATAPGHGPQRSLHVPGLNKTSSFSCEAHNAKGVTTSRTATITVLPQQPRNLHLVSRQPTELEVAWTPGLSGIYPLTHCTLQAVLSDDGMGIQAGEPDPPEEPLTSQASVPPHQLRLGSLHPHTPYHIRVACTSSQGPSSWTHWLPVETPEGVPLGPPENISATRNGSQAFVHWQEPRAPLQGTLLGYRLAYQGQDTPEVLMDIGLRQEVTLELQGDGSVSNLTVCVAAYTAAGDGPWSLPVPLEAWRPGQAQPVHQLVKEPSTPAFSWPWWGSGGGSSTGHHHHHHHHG
Description: SPR Biacore T200, mAb captured on anti-Fc, AXL ECD flowed (footnote b printed in a row of footnote a). On the procedure: (§3) Surface plasmon resonance. For murine mAbs, binding to human and cynomolgus AXL ECD was assessed using a Biacore T200 instrument. Briefly, either anti-mouse or anti-human Fc antibody was immobilized on a research-grade CM5 series S sensor chip using amine coupling in acetate buffer. Murine or recombinant chimeric murine-human mAbs (mouse VH/VL; human constant regions) were captured, then recombinant human or cyno AXL ECD was flowed over the surface at different concentration ranges (0.1-500 nM) depending on the antibody. The running buffer was PBS/Tween-20 and the flow rate 100 uL/min. All binding studies were performed at 25° C. Surfaces were regenerated using 10 mM glycine, pH 1.5.
(In general: In SPR one partner is held on a chip, and binding of the other changes the refractive index at the surface.)

Test [5] addresses T1, human AXL expressed on the cell surface …. Description: FACS on NCI-H292 cells, apparent Kd. On the procedure: as §1, §2
For test [6], the target named is T3, recombinant human AXL extracellular …. Nature of the test: SPR Biacore T200, mAb captured on anti-Fc, AXL ECD flowed, multi-cycle kinetics. Here is the method: as §3

B1: NRC-sdAb001-Fc (VHH-human IgG1 Fc fusion) (Fc fusion)
chain: QVKLEESGGGLVQAGGSLRLSCTASASISSFDIMGWYRQAPGKQRELVAAITTLDIANYRDSVKGRFTISRDNAKNTVYLQMDSLKPEDTARYHCAAFQSDQNYWGQGTQVTVSS
notes: VHH fused N-terminally to human IgG1 Fc, made in HEK293 cells; also called NRC-sdAb0001-Fc; NRC-sdAb001-hIgG1; not shown: human IgG1 Fc
In the case of B1, the Kd in test [1] came out at 112 pM; in test [2] it was 233 pM.

B2: hFC-F107-10G1 (antibody, human IgG1, kappa, V domains shown)
VH: EVNLVESGGGVVKPGASLKLSCEASGFTFSNYGMSWVRQTSDKRLEWVASISGGGGRTYYLDNVKGRFIISRENAKNTLYLQMSSLKSEDTALFYCARGARASYFAMDYWGQGSSVTVSS
VL: VIVMTQSHKFMSTSVGDRVSITCKASQDVTTAVAWYQQKPGQSPKLLIYWASTRHTGVPDRFTGSGSGTDYSLTISNVQTEDLAFYYCQQHFTTPLTFGAGTKLELKR
notes: Chimeric mAb, human IgG1 / human kappa constant regions; also called mAb F107-10G1
Turning to B2, the “yeast ELISA signal normalized to myc expression level” value in test [3] is -0.02. Besides, the koff – broadly, a measure of how fast the partners let go of each other – is 0.00059 s⁻¹ in test [4] and 0.00056 s⁻¹ in test [6]. The values for the Kd in test [5] and in test [6] were 70.8 pM and 400 pM, respectively. Moreover, the kon (in general, the second-order rate constant of association) in test [6] was determined as 1.2e+06 M⁻¹ s⁻¹.
